According to IntAct's records for PubMed 20133654:

Key:
obsl1_human OBSL1 = obsl1_human OBSL1 (UniProt O75147)
obscn_human OBSCN = obscn_human OBSCN (UniProt Q5VST9)

Chain of obsl1_human OBSL1 (O75147 whole entry): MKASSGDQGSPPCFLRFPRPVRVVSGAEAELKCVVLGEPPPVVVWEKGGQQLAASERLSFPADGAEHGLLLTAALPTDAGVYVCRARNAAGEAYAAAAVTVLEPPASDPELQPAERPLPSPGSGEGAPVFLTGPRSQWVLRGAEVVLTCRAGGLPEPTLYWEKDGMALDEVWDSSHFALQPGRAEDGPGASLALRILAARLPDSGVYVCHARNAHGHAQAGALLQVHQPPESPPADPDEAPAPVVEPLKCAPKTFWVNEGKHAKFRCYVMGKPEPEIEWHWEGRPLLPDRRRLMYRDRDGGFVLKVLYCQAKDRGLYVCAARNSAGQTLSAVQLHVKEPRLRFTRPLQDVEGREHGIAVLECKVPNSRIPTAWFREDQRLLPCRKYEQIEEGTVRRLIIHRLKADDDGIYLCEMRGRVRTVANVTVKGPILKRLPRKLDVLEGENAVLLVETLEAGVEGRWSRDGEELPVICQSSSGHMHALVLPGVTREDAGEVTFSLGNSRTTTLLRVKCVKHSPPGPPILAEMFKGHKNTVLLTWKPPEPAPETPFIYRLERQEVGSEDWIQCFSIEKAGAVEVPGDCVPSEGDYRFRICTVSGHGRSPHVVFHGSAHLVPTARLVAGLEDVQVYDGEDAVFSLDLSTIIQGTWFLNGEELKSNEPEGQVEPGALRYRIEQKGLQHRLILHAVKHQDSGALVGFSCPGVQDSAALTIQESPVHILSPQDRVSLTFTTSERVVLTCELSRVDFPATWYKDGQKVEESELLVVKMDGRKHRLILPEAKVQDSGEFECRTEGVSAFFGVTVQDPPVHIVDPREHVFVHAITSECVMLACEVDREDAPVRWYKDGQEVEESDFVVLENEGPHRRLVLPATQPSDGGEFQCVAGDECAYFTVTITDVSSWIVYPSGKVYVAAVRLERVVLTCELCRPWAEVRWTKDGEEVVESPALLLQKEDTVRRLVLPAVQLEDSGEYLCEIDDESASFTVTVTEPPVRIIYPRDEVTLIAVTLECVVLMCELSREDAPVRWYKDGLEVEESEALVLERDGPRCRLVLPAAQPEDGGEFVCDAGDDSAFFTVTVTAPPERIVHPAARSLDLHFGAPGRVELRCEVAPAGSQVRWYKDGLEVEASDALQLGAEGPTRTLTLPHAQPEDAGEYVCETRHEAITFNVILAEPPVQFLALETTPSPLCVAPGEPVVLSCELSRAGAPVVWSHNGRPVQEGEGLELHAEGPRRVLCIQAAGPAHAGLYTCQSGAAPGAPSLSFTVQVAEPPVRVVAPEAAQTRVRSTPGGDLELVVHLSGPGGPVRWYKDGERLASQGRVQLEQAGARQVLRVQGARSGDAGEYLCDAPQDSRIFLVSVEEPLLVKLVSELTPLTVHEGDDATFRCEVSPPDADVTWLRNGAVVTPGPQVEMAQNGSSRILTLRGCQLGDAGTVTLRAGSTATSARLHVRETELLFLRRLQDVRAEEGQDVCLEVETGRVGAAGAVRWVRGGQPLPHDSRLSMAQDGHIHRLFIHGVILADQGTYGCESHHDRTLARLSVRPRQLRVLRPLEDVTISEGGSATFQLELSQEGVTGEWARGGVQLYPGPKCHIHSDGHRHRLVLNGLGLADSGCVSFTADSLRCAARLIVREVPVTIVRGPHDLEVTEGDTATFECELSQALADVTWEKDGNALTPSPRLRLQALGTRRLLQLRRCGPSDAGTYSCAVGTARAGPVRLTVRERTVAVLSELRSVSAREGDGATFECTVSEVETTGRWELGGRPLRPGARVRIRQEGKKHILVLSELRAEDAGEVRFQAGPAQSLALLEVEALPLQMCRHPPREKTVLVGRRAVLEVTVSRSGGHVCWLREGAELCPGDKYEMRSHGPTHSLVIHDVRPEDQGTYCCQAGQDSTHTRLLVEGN

Row | effect of a mutation on the interaction (obsl1_human OBSL1) | effect of a mutation on the interaction (obscn_human OBSCN) | Substance
1 | disrupting interaction | disrupting interaction | Titin (Homo sapiens), Q8WZ42 A34260Y
2 |  | increasing interaction | Titin (Homo sapiens), Q8WZ42 I34306N
